This is an account of results in article doi:10.1101/2024.08.21.608941.

What is called stoichiometry N is the number of molecules, sites or subunits per partner or assembly.

Data set [1] deals with M. tuberculosis Eσ^B holoenzyme (M. tuberculosis) (UniProt P9WGZ1). In words: negative-stain electron microscopy.
For data set [2] the target is unchanged. The experiment in a line: cryo-EM particle classification.
Data set [3] addresses RNAP core deltaFT;sigB Cys151/292 (DY547P1/DY647P1 labelled);RbpA (Mycobacterium …, UniProt P9WGZ1;P9WGY9;P9WGY7;P9WGY5;P9WGI5;P9WHJ5 …, internal_change|T151C;G292C|). In words: smFRET.
The target in data set [4] is RNAP core deltaFT;sigB Cys151/292 (DY547P1/DY647P1 labelled) (Mycobacterium …, UniProt P9WGZ1;P9WGY9;P9WGY7;P9WGY5;P9WGI5 1-347;1-810+826-1178;1-1316;1-110;1-323, internal_change|T151C;G292C). In words: smFRET.

For the molecule “M. tuberculosis Eσ^B holoenzyme (from UniProt P9WGZ1;P9WGY9;P9WGY7;P9WGY5;P9WGI5) (complex)”, the values for the stoichiometry N in data set [1] and in data set [2] were 8 and 2, respectively.

B1: -10 ssDNA (unlabelled) (ssDNA)
DNA: TGCGTATAATGTGTGGA
In the case of B1, the binding result in data set [3] and in data set [4] was “binds” throughout.
